Test results as given in paper doi:10.1101/2022.03.17.484791.

Target: PY-NLS mutants (R206W/Q/G, P209L, and Y210C)
Test: co-IP

- reduction in Kapβ2 interaction against WT: 50 to 75%
Substance: Kapβ2, endogenous in HEK293T cells (from UniProt Q92973 1-898) (receptor)
